Data taken from the Human Domainome abundance scans (Beltran et al. 2025).

B1: SWI/SNF-related matrix-associated actin-dependent regulator of chromatin subfamily B member 1, residues 181 to 248; numbered along this chain, Q12824 (parent)
chain: SQPEVLVPIRLDMEIDGQKLRDAFTWNMNEKLMTPEMFSEILCDDLDLNPLTFVPAIASAIRQQIESY

Variants of: B1
Assay: abundance fitness (aPCA) (normalised: wild type 0, dead -1); higher = more abundant; growth selection in yeast, the domain comes from the species named
Details: Homo sapiens

Abundance fitness, by site and new letter:
V7: S -0.866 | A -0.65 | I -0.049 | K -0.906
W26: A -1 | E -0.628 | C -0.673 | T -0.854 | M -0.566 | R -0.498
L6: Y -0.346 | W -0.152 | F -0.236 | T -0.126 | G -0.217 | I -0.03 | Q -0.217
K31: A 0.031 | W -0.533 | R -0.113 | F -0.397 | Q -0.085
D12: V -0.646
L32: D 0.181 | V 0.068 | S 0.059 | G 0.061 | E 0.207 | A 0.056
Q64: S -0.563 | V -0.941 | A -0.354 | M -0.904 | K -0.97 | I -0.898
K19: W -0.7
I41: R 0.218 | Q 0.211 | S 0.174 | W -0.04 | K 0.314 | N 0.167 | E 0.131 | F -0.103
L42: E -0.978 | M 0.117 | R -0.211 | S -0.69 | H -0.636 | D -0.869 | A -0.721
L48: K -0.651 | Y -0.649 | S -0.659 | C -0.374 | R -0.989
E4: L -0.292 | S -0.331 | P -0.024 | C -0.32 | V 0.047 | T -0.281 | Q -0.182 | R -0.234 | W -0.599
A23: Q 0.09 | K 0.102 | E 0.221 | F -0.039 | G -0.291 | V 0.116 | M 0.048 | D 0.211 | I -0.076
M33: I -0.104 | T -0.279 | Q -0.191 | L 0.01 | P -0.113
A60: K -0.214 | W -0.71 | Y -0.637 | L -0.72 | V -0.286
T25: H -0.065 | A -0.172 | V -0.048 | Q -0.121 | K -0.125 | Y -0.326 | S -0.173
N27: Y -0.831 | W -0.909 | E -0.822 | C -0.923 | H -0.723 | R -0.684 | M -0.988
I57: T -0.855 | A -0.781 | K -0.931 | F -0.957 | N -0.542 | S -0.802 | W -0.615 | E -0.749 | V -0.177 | L -0.76 | H -1.03 | Y -0.713
F24: N -0.964 | E -0.763 | T -0.746 | I -0.156 | H -0.991 | P -0.866 | W -0.293
E40: T -0.12 | S -0.114 | I -0.419 | K -0.015 | W -0.511 | V -0.215 | Q 0.005 | N -0.269 | P -0.794 | G -0.347
I9: L -0.989 | T -0.701 | D -0.74
P50: E -0.818 | M -1.03 | L -0.933 | Y -0.714 | T -0.364 | D -0.986 | I -1
L11: C -0.848 | S -0.751 | A -0.792
C43: G -0.739 | E -1.02 | M -0.686 | S -0.79 | V -0.249 | K -0.613 | A -0.467 | N -1.03 | W -0.497
D44: V -0.008 | S 0.043 | E 0.309 | K 0.177
V5: I -0.438 | R -0.205 | W -0.312 | F -0.079 | Y -0.096
L20: N -0.788 | F -0.011 | C -0.319 | R -0.501 | G -0.677 | S -0.603 | K -0.598 | V -0.01 | P -0.622
